One substance from paper PMC9133036 (Nature Communications, 2022) can be followed below.

The assay concerns the target T1, full-length wild-type human OX2R (pCDNA3, HEK293) (human) (UniProt O43614).
T1 sequence: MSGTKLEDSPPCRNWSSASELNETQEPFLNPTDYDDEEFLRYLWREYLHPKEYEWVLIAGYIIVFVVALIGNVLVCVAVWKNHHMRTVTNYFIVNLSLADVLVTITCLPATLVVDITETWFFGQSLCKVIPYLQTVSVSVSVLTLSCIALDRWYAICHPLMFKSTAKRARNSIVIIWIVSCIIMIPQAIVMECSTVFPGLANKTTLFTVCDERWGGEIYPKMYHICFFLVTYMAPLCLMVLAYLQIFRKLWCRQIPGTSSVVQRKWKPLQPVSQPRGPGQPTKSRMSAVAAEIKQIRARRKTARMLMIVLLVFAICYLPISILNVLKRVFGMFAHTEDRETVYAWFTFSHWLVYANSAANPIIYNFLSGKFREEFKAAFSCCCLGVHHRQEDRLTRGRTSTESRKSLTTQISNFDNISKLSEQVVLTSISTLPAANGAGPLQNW

Chain of orexin B (O43612 70-97): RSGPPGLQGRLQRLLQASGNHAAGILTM

As to “orexin B (from UniProt O43612 70-97) (peptide)”, the Gq-mediated inositol phosphate (IP) accumulation in HEK293 cells transfected with OX2R and Gαq; EC50 of orexin B amounted to 8.2 nM.
